Measurements published in paper PMC10663602.
Values belong to the binder of their own block, whether it stands above or below them.

Experiments:
[1] = molecular target: hFcα-tFcµ-chi1 (human | Oncorhynchus mykiss (rainbow trout)); assay: SEC; preparative SEC (Superose 6 Increase 10/300) after Ni-NTA; share of pIg and mIg in the total protein purified (Supplementary Fig. 6)
[2] = molecular target: hFcα-tFcµ-chi2 (human | Oncorhynchus mykiss (rainbow trout)); assay: as above

percent of the total protein purified that is pIg [1]: < 30%
B1: hFcα-tFcµ-chi1 (protein)
chain: CHPRLSLHRPALEDLLLGSEANLTCTLTGLRDASGVTFTWTPSSGKSAVQGPPERDLCGCYSVSSVLPGCAEPWNHGKTFTCTAAYPESKTPLTATLSKSGNTFRPEVHLLPPPSEELALNELVTLTCLARGFSPKDVLVRWLQGSQELPREKYLTWASRQEPSQGTTTFAVTSILRVAAEDWKKGDTFSCMVGHEALPLAFTNIIMRTIDRTSNQPNLVNLSLNVPQRCMAQ
modifications: here or on the partner: N-glycosylated; polymeric, about a dimer by SEC-MALS. Table prints the same sequence for chi1 and chi2 / N-glycosylated; polymeric, about a dimer by SEC-MALS. Table prints the same sequence for chi1 a

percent of the total protein purified that is pIg [2]: < 30%
B2: hFcα-tFcµ-chi2 (protein)
chain: B1 chain
modifications: here or on the partner: N-glycosylated; P1 about a tetramer, P2 monomer. Table prints the same sequence for chi1 and chi2 / N-glycosylated; P1 about a tetramer, P2 monomer. Table prints the same sequence for chi1 and chi2
